Two substances from patent US8575303 can be followed below.

Bounds are passed on as bounds.

The target in experiment [1] is unlabeled anti-CD4 (RPA-T4 clone, BD Biosciences) raised in mouse against the human antigen. Description: flow cytometry on Cyto-trol cells pre-labeled with mouse anti-CD4 primary (Example 36, FIG. 20B).
Experiment [2] has as its target Mouse IgG. Nature of the experiment: Luminex xMap bead sandwich assay, mouse IgG titration, detection with streptavidin-conjugated polymer.
Experiment [3] deals with Mouse IgG. Nature of the experiment: Luminex xMap bead sandwich assay, mouse IgG titration, detection with streptavidin-phycoerythrin at 4 ug/mL.

Substance “405 polymer-goat anti-mouse conjugate (amine-functionalized 405 polymer conjugated to goat anti-mouse IgG purified antibody)” gave a stain index, fold over a Pacific Blue control conjugate of the same antibody in experiment [1] of more than 4 fold. As to “Donkey anti-mouse IgG antibody covalently conjugated to xMap beads”, the MFI/zero (fluorescence highest point in standard curve/fluorescence zero concentration of analyte) with Mouse IgG [2] stood at 26.6; with Mouse IgG [3] it was 21.8.
